In PMC10716038, “Talin and kindlin use integrin tail allostery and direct binding to activate integrins” (Nature Structural & Molecular Biology, 2023):
Values joined by “and” are separate entries in the source; they are usually repeats but may differ in a detail not shown here. Identical values can stand only once. No end group written: not given here.

Experiments:
Settings in all cases: both partners purified
THD1 K403E = molecular target: T1, THD1 K403E (UniProt P26039 1-405, K403E); experiment: MST; apparent; THD1 or THD1 mutants titrated to 488–β3-CT in the presence of 30-40 µM KIND2; MST buffer
T1 construct: talin-1 (TLN1) head domain, residues 1-405, K403E; source: E. coli (DE3) Rosetta 2, purified (IMAC, SEC); not shown: His10-SUMO, N-terminal, cleaved

THD1 K403A = molecular target: T2, THD1 K403A (UniProt P26039 1-405, K403A); experiment: as above
T2 construct: talin-1 (TLN1) head domain, residues 1-405, K403A; source: E. coli (DE3) Rosetta 2, purified (IMAC, SEC); not shown: His10-SUMO, N-terminal, cleaved

THD1 K402A = molecular target: T3, THD1 K402A (UniProt P26039 1-405, K402A); experiment: as above
T3 construct: talin-1 (TLN1) head domain, residues 1-405, K402A; source: E. coli (DE3) Rosetta 2, purified (IMAC, SEC); not shown: His10-SUMO, N-terminal, cleaved

THD1 KKAA = molecular target: T4, THD1 KKAA (UniProt P26039 1-405, KKAA (KK402/403)); experiment: as above
T4 construct: the sheet prints only 'KKAA'; source: E. coli (DE3) Rosetta 2, purified (IMAC, SEC); not shown: His10-SUMO, N-terminal, cleaved

THD1 Y395A = molecular target: T5, THD1 Y395A (UniProt P26039 1-405, Y395A); experiment: as above
T5 construct: talin-1 (TLN1) head domain, residues 1-405, Y395A; source: E. coli (DE3) Rosetta 2, purified (IMAC, SEC); not shown: His10-SUMO, N-terminal, cleaved

THD1 L400A = molecular target: T6, THD1 L400A (UniProt P26039 1-405, L400A); experiment: as above
T6 construct: talin-1 (TLN1) head domain, residues 1-405, L400A; source: E. coli (DE3) Rosetta 2, purified (IMAC, SEC); not shown: His10-SUMO, N-terminal, cleaved

THD1 I399A = molecular target: T7, THD1 I399A (UniProt P26039 1-405, I399A); experiment: as above
T7 construct: talin-1 (TLN1) head domain, residues 1-405, I399A; source: E. coli (DE3) Rosetta 2, purified (IMAC, SEC); not shown: His10-SUMO, N-terminal, cleaved

KIND2 Y13A = molecular target: T8, KIND2 Y13A (UniProt Q8CIB5 1-680, Y13A); experiment: MST; apparent; KIND2-Y13A titrated to 488–β3-CT or KIND2 to 488–β1-spacer-CT in the presence of 300-400 µM THD1; MST buffer
T8 construct: kindlin-2 (KIND2), recombinant, Y13A; source: E. coli Rosetta, purified (IMAC, SEC); not shown: His10-SUMO, N-terminal, cleaved
T8 sequence (looked up): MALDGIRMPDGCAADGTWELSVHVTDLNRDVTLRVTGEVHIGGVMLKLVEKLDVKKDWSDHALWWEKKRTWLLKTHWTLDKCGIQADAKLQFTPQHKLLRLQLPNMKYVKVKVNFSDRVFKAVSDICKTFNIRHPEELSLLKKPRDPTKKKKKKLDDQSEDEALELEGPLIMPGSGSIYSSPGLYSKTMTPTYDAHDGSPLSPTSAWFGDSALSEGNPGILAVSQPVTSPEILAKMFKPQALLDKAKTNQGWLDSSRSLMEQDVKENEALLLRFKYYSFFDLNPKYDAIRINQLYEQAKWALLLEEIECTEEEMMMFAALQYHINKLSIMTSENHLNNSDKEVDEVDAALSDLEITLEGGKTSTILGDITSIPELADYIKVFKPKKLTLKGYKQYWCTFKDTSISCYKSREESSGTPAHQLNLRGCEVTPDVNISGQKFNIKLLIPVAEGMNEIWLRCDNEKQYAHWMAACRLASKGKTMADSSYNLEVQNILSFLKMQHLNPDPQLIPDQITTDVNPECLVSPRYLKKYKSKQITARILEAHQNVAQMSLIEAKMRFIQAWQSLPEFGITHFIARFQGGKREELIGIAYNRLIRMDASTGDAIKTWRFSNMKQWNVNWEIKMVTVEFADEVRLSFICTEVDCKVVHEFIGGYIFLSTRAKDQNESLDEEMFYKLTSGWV

T2 sequence (P26039 1-405 K403A): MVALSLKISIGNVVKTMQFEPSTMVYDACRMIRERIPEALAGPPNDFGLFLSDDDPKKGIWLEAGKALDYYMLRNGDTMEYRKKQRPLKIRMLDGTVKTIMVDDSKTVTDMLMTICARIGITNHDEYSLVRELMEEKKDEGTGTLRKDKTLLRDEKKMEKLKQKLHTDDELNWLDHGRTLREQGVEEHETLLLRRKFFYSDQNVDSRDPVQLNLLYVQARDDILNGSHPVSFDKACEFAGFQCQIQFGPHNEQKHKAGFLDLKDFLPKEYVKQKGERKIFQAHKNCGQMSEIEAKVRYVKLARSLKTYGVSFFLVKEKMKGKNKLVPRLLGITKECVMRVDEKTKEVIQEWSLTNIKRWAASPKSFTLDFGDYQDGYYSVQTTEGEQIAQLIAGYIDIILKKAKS
T3 sequence (P26039 1-405 K402A): as the sequence (P26039 1-405 K403A) above, with K402A, A403K counted along it
T5 sequence (P26039 1-405 Y395A): as the sequence (P26039 1-405 K403A) above, with Y395A, A403K counted along it
T7 sequence (P26039 1-405 I399A): as the sequence (P26039 1-405 K403A) above, with I399A, A403K counted along it
T1 sequence (P26039 1-405 K403E): as the sequence (P26039 1-405 K403A) above, with A403E counted along it
T4 sequence (P26039 other isoform, or with tags, fused parts or gaps KKAA (KK402/403) | KKAA (KK402/403)): as the sequence (P26039 1-405 K403A) above, with K402A counted along it
T6 sequence (P26039 1-405 L400A): as the sequence (P26039 1-405 K403A) above, with L400A, A403K counted along it

Kd (THD1 K403E): 116 µM
Kd (THD1 K403A): 114 µM
Kd (THD1 K402A): 117 µM
Kd (THD1 KKAA): 88.3 µM
Kd (THD1 Y395A): 42 µM
Kd (THD1 L400A): 180 µM
Kd (THD1 I399A): 91 µM
Kd (KIND2 Y13A): 24 µM and 20.7 µM and 18.8 µM
B1: ATTO 488-labeled integrin β3 cytoplasmic tail (488–β3-CT) (peptide, UniProt O54890 741-787, looked up)
peptide: {ATTO 488}-KLLITIHDRKEFAKFEEERARAKWDTANNPLYKEATSTFTNITYRGT
notes: integrin β3 cytoplasmic tail (β3-CT); source: synthetic peptide (MPIB Core Facility)
